Reference: patent US20180118802A1
Each block holds one substance with its values, some of them ahead of it.

What was measured:
[1] = target: 8D6 CR12 (human) (UniProt Q9NPF0); assay: solid-phase binding assay (FIG. 10)
[2] = target: CR pair used to test the MatRAP1 truncations (not named); assay: solid-phase binding assay of truncated variants (FIG. 9)
[3] = target: LRP2 CR89 (human) (UniProt P98164); assay: solid-phase binding assay, CR protein coated, anti-RAP detection
Chain of LRP2 CR89 (human) (P98164 1025-1102): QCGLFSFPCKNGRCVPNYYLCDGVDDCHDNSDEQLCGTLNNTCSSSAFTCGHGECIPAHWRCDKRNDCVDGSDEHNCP

Chain of 8D6 CR12 (human) (Q9NPF0 other isoform, or with tags, fused parts or gaps): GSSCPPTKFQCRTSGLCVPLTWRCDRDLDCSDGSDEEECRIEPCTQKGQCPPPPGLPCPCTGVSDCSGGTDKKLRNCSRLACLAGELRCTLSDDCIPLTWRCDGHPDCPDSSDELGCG
Chain of MatRAP1 N-42 (P30533 other isoform, or with tags, fused parts or gaps): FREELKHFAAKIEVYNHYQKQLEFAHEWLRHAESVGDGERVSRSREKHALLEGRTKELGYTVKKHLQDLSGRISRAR

fold improvement in affinity against the full-length variant [1]: 3.5 fold
Substance: 320RAP1 truncated form (identical truncations, amino acids 243-313) (from UniProt P30533 277-347) (ligand)

fold increase in affinity over the full-length d3 variant [2]: 3 fold
Substance: MatRAP1 N-42 (from UniProt P30533 277-353) (ligand)

fold increase in affinity over MatRAP1 N-42 [2]: 4 fold
fold increase in affinity over the full-length d3 variant [2]: 12 fold
Substance: MatRAP1 amino acids 243-313 (best truncated variant, 71 amino acids) (from UniProt P30533 277-347) (ligand)

% max [3]: 35%
Substance: MegaRAP1 d3 Y249H (from UniProt P30533 235-353) (ligand)
